These results are taken from patent publication US20230159662A1 (Kyowa Kirin, published 2023).

B1: human IgG1 anti-human CCR4 antibody (KM2160), S298A/E333A/K334A (AAA) (antibody)
heavy: EVQLVESGGDLMKPGGSLKISCAASGFIFSNYGMSWVRQTPDMRLEWVATISSASTYSYYPDSVKGRFTISRDNAENSLYLQMNSLRSEDTGIYYCGRHSDGNFAFGYWGRGTLVTVSAASTKGPSVFPLAPSSKSTSGGTAALGCLVKDYFPEPVTVSWNSGALTSGVHTFPAVLQSSGLYSLSSVVTVPSSSLGTQTYICNVNHKPSNTKVDKKVEPKSCDKTHTCPPCPAPELLGGPSVFLFPPKPKDTLMISRTPEVTCVVVDVSHEDPEVKFNWYVDGVEVHNAKTKPREEQYNATYRVVSVLTVLHQDWLNGKEYKCKVSNKALPAPIAATISKAKGQPREPQVYTLPPSRDELTKNQVSLTCLVKGFYPSDIAVEWESNGQPENNYKTTPPVLDSDGSFFLYSKLTVDKSRWQQGNVFSCSVMHEALHNHYTQKSLSLSPGK
light: DVLMTQTPLSLPVSLGDQASISCRSSRNIVHINGDTYLEWYLQRPGQSPKLLIYKVSNRFSGVPDRFSGSGSGTDFTLKISRVEAEDLGVYYCFQGSLLPWTFGGGTRLEIRRTVAAPSVFIFPPSDEQLKSGTASVVCLLNNFYPREAKVQWKVDNALQSGNSQESVTEQDSKDSTYSLSSTLTLSKADYEKHKVYACEVTHQGLSSPVTKSFNRGEC
B2: human IgG1 anti-human CCR4 antibody (KM2160), S298A/E333A/K334A (AAA)/H268E (antibody)
heavy: EVQLVESGGDLMKPGGSLKISCAASGFIFSNYGMSWVRQTPDMRLEWVATISSASTYSYYPDSVKGRFTISRDNAENSLYLQMNSLRSEDTGIYYCGRHSDGNFAFGYWGRGTLVTVSAASTKGPSVFPLAPSSKSTSGGTAALGCLVKDYFPEPVTVSWNSGALTSGVHTFPAVLQSSGLYSLSSVVTVPSSSLGTQTYICNVNHKPSNTKVDKKVEPKSCDKTHTCPPCPAPELLGGPSVFLFPPKPKDTLMISRTPEVTCVVVDVSEEDPEVKFNWYVDGVEVHNAKTKPREEQYNATYRVVSVLTVLHQDWLNGKEYKCKVSNKALPAPIAATISKAKGQPREPQVYTLPPSRDELTKNQVSLTCLVKGFYPSDIAVEWESNGQPENNYKTTPPVLDSDGSFFLYSKLTVDKSRWQQGNVFSCSVMHEALHNHYTQKSLSLSPGK
light: DVLMTQTPLSLPVSLGDQASISCRSSRNIVHINGDTYLEWYLQRPGQSPKLLIYKVSNRFSGVPDRFSGSGSGTDFTLKISRVEAEDLGVYYCFQGSLLPWTFGGGTRLEIRRTVAAPSVFIFPPSDEQLKSGTASVVCLLNNFYPREAKVQWKVDNALQSGNSQESVTEQDSKDSTYSLSSTLTLSKADYEKHKVYACEVTHQGLSSPVTKSFNRGEC
B3: human IgG1 anti-human CCR4 antibody (KM2160), S239D/I332E (DE) (antibody)
heavy: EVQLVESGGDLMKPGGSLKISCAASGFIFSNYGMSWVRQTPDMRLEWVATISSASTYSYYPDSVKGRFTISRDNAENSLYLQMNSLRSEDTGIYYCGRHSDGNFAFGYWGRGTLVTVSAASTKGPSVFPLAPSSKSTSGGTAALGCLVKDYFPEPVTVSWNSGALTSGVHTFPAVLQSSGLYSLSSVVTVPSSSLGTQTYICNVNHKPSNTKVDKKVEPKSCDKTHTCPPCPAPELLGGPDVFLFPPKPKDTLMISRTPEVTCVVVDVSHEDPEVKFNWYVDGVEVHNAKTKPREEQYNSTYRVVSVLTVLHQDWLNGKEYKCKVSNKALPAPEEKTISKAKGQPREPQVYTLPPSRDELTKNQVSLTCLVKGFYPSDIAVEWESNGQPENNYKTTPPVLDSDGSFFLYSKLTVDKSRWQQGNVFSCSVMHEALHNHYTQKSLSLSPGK
light: DVLMTQTPLSLPVSLGDQASISCRSSRNIVHINGDTYLEWYLQRPGQSPKLLIYKVSNRFSGVPDRFSGSGSGTDFTLKISRVEAEDLGVYYCFQGSLLPWTFGGGTRLEIRRTVAAPSVFIFPPSDEQLKSGTASVVCLLNNFYPREAKVQWKVDNALQSGNSQESVTEQDSKDSTYSLSSTLTLSKADYEKHKVYACEVTHQGLSSPVTKSFNRGEC
B4: human IgG1 anti-human CCR4 antibody (KM2160), S298A/E333A/R292L/K334E (antibody)
heavy: EVQLVESGGDLMKPGGSLKISCAASGFIFSNYGMSWVRQTPDMRLEWVATISSASTYSYYPDSVKGRFTISRDNAENSLYLQMNSLRSEDTGIYYCGRHSDGNFAFGYWGRGTLVTVSAASTKGPSVFPLAPSSKSTSGGTAALGCLVKDYFPEPVTVSWNSGALTSGVHTFPAVLQSSGLYSLSSVVTVPSSSLGTQTYICNVNHKPSNTKVDKKVEPKSCDKTHTCPPCPAPELLGGPSVFLFPPKPKDTLMISRTPEVTCVVVDVSHEDPEVKFNWYVDGVEVHNAKTKPLEEQYNATYRVVSVLTVLHQDWLNGKEYKCKVSNKALPAPIAETISKAKGQPREPQVYTLPPSRDELTKNQVSLTCLVKGFYPSDIAVEWESNGQPENNYKTTPPVLDSDGSFFLYSKLTVDKSRWQQGNVFSCSVMHEALHNHYTQKSLSLSPGK
light: DVLMTQTPLSLPVSLGDQASISCRSSRNIVHINGDTYLEWYLQRPGQSPKLLIYKVSNRFSGVPDRFSGSGSGTDFTLKISRVEAEDLGVYYCFQGSLLPWTFGGGTRLEIRRTVAAPSVFIFPPSDEQLKSGTASVVCLLNNFYPREAKVQWKVDNALQSGNSQESVTEQDSKDSTYSLSSTLTLSKADYEKHKVYACEVTHQGLSSPVTKSFNRGEC
B5: human IgG1 anti-human CCR4 antibody (KM2160), S239D/K326T (antibody)
heavy: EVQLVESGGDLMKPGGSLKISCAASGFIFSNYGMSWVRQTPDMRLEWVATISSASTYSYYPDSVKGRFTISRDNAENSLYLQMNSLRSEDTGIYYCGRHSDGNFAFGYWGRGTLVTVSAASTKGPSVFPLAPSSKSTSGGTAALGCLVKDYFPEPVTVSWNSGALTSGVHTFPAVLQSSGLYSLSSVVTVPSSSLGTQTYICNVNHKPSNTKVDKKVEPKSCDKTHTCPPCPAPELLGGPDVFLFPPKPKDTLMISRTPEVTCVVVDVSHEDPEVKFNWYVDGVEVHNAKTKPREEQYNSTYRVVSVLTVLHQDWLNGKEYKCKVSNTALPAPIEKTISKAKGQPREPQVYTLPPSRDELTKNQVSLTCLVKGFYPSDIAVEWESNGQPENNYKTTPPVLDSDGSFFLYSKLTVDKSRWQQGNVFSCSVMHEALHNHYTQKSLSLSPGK
light: DVLMTQTPLSLPVSLGDQASISCRSSRNIVHINGDTYLEWYLQRPGQSPKLLIYKVSNRFSGVPDRFSGSGSGTDFTLKISRVEAEDLGVYYCFQGSLLPWTFGGGTRLEIRRTVAAPSVFIFPPSDEQLKSGTASVVCLLNNFYPREAKVQWKVDNALQSGNSQESVTEQDSKDSTYSLSSTLTLSKADYEKHKVYACEVTHQGLSSPVTKSFNRGEC
B6: human IgG1 anti-human CCR4 antibody (KM2160), S298A/E333A/K334A (AAA)/P247L/N421K (antibody)
heavy: EVQLVESGGDLMKPGGSLKISCAASGFIFSNYGMSWVRQTPDMRLEWVATISSASTYSYYPDSVKGRFTISRDNAENSLYLQMNSLRSEDTGIYYCGRHSDGNFAFGYWGRGTLVTVSAASTKGPSVFPLAPSSKSTSGGTAALGCLVKDYFPEPVTVSWNSGALTSGVHTFPAVLQSSGLYSLSSVVTVPSSSLGTQTYICNVNHKPSNTKVDKKVEPKSCDKTHTCPPCPAPELLGGPSVFLFPPKLKDTLMISRTPEVTCVVVDVSHEDPEVKFNWYVDGVEVHNAKTKPREEQYNATYRVVSVLTVLHQDWLNGKEYKCKVSNKALPAPIAATISKAKGQPREPQVYTLPPSRDELTKNQVSLTCLVKGFYPSDIAVEWESNGQPENNYKTTPPVLDSDGSFFLYSKLTVDKSRWQQGKVFSCSVMHEALHNHYTQKSLSLSPGK
light: DVLMTQTPLSLPVSLGDQASISCRSSRNIVHINGDTYLEWYLQRPGQSPKLLIYKVSNRFSGVPDRFSGSGSGTDFTLKISRVEAEDLGVYYCFQGSLLPWTFGGGTRLEIRRTVAAPSVFIFPPSDEQLKSGTASVVCLLNNFYPREAKVQWKVDNALQSGNSQESVTEQDSKDSTYSLSSTLTLSKADYEKHKVYACEVTHQGLSSPVTKSFNRGEC
B7: human IgG1 anti-human CCR4 antibody (KM2160), S239D/A330F (antibody)
heavy: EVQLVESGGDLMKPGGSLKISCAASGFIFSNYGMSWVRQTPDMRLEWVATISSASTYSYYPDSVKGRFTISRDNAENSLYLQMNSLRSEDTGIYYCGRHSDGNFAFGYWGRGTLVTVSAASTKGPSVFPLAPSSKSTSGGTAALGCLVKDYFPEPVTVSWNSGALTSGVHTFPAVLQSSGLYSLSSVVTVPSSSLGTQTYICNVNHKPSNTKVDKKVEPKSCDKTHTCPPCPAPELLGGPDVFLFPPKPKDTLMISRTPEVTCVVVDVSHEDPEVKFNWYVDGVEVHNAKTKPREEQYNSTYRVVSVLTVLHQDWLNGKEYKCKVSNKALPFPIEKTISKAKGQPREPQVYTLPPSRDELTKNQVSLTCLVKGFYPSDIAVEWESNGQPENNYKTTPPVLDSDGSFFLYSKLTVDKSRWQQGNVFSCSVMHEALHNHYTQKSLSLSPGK
light: DVLMTQTPLSLPVSLGDQASISCRSSRNIVHINGDTYLEWYLQRPGQSPKLLIYKVSNRFSGVPDRFSGSGSGTDFTLKISRVEAEDLGVYYCFQGSLLPWTFGGGTRLEIRRTVAAPSVFIFPPSDEQLKSGTASVVCLLNNFYPREAKVQWKVDNALQSGNSQESVTEQDSKDSTYSLSSTLTLSKADYEKHKVYACEVTHQGLSSPVTKSFNRGEC
B8: human IgG1 anti-human CCR4 antibody (KM2160), S298A/E333A/K334A (AAA)/P247L (antibody)
heavy: EVQLVESGGDLMKPGGSLKISCAASGFIFSNYGMSWVRQTPDMRLEWVATISSASTYSYYPDSVKGRFTISRDNAENSLYLQMNSLRSEDTGIYYCGRHSDGNFAFGYWGRGTLVTVSAASTKGPSVFPLAPSSKSTSGGTAALGCLVKDYFPEPVTVSWNSGALTSGVHTFPAVLQSSGLYSLSSVVTVPSSSLGTQTYICNVNHKPSNTKVDKKVEPKSCDKTHTCPPCPAPELLGGPSVFLFPPKLKDTLMISRTPEVTCVVVDVSHEDPEVKFNWYVDGVEVHNAKTKPREEQYNATYRVVSVLTVLHQDWLNGKEYKCKVSNKALPAPIAATISKAKGQPREPQVYTLPPSRDELTKNQVSLTCLVKGFYPSDIAVEWESNGQPENNYKTTPPVLDSDGSFFLYSKLTVDKSRWQQGNVFSCSVMHEALHNHYTQKSLSLSPGK
light: DVLMTQTPLSLPVSLGDQASISCRSSRNIVHINGDTYLEWYLQRPGQSPKLLIYKVSNRFSGVPDRFSGSGSGTDFTLKISRVEAEDLGVYYCFQGSLLPWTFGGGTRLEIRRTVAAPSVFIFPPSDEQLKSGTASVVCLLNNFYPREAKVQWKVDNALQSGNSQESVTEQDSKDSTYSLSSTLTLSKADYEKHKVYACEVTHQGLSSPVTKSFNRGEC
B9: human IgG1 anti-human CCR4 antibody (KM2160), S298A/E333A/K334A (AAA)/R293P (antibody)
heavy: EVQLVESGGDLMKPGGSLKISCAASGFIFSNYGMSWVRQTPDMRLEWVATISSASTYSYYPDSVKGRFTISRDNAENSLYLQMNSLRSEDTGIYYCGRHSDGNFAFGYWGRGTLVTVSAASTKGPSVFPLAPSSKSTSGGTAALGCLVKDYFPEPVTVSWNSGALTSGVHTFPAVLQSSGLYSLSSVVTVPSSSLGTQTYICNVNHKPSNTKVDKKVEPKSCDKTHTCPPCPAPELLGGPSVFLFPPKPKDTLMISRTPEVTCVVVDVSHEDPEVKFNWYVDGVEVHNAKTKPPEEQYNATYRVVSVLTVLHQDWLNGKEYKCKVSNKALPAPIAATISKAKGQPREPQVYTLPPSRDELTKNQVSLTCLVKGFYPSDIAVEWESNGQPENNYKTTPPVLDSDGSFFLYSKLTVDKSRWQQGNVFSCSVMHEALHNHYTQKSLSLSPGK
light: DVLMTQTPLSLPVSLGDQASISCRSSRNIVHINGDTYLEWYLQRPGQSPKLLIYKVSNRFSGVPDRFSGSGSGTDFTLKISRVEAEDLGVYYCFQGSLLPWTFGGGTRLEIRRTVAAPSVFIFPPSDEQLKSGTASVVCLLNNFYPREAKVQWKVDNALQSGNSQESVTEQDSKDSTYSLSSTLTLSKADYEKHKVYACEVTHQGLSSPVTKSFNRGEC
B10: human IgG1 anti-human CCR4 antibody (KM2160), S298A/E333A/K334A (AAA)/K326T (antibody)
heavy: EVQLVESGGDLMKPGGSLKISCAASGFIFSNYGMSWVRQTPDMRLEWVATISSASTYSYYPDSVKGRFTISRDNAENSLYLQMNSLRSEDTGIYYCGRHSDGNFAFGYWGRGTLVTVSAASTKGPSVFPLAPSSKSTSGGTAALGCLVKDYFPEPVTVSWNSGALTSGVHTFPAVLQSSGLYSLSSVVTVPSSSLGTQTYICNVNHKPSNTKVDKKVEPKSCDKTHTCPPCPAPELLGGPSVFLFPPKPKDTLMISRTPEVTCVVVDVSHEDPEVKFNWYVDGVEVHNAKTKPREEQYNATYRVVSVLTVLHQDWLNGKEYKCKVSNTALPAPIAATISKAKGQPREPQVYTLPPSRDELTKNQVSLTCLVKGFYPSDIAVEWESNGQPENNYKTTPPVLDSDGSFFLYSKLTVDKSRWQQGNVFSCSVMHEALHNHYTQKSLSLSPGK
light: DVLMTQTPLSLPVSLGDQASISCRSSRNIVHINGDTYLEWYLQRPGQSPKLLIYKVSNRFSGVPDRFSGSGSGTDFTLKISRVEAEDLGVYYCFQGSLLPWTFGGGTRLEIRRTVAAPSVFIFPPSDEQLKSGTASVVCLLNNFYPREAKVQWKVDNALQSGNSQESVTEQDSKDSTYSLSSTLTLSKADYEKHKVYACEVTHQGLSSPVTKSFNRGEC

Sequence of human CD16a (Val type) stably expressed on NK-92 cells (NK-92/CD16 transfectant) (P08637 17-254 F176V): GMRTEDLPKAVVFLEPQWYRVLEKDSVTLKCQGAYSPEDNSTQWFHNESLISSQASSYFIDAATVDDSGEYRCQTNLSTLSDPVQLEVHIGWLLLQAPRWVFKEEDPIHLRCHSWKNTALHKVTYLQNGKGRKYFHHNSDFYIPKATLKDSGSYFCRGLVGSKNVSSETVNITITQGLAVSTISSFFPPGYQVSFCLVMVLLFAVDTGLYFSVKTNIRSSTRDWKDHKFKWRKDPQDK

The experiment addresses human CD16a (Val type) stably expressed on NK-92 cells (NK-92/CD16 transfectant) (human, UniProt P08637 17-254). As to the kind of experiment: cell-based or functional assay.
B1: the “relative ADCC activity (AAA = 100)” value was 100 relative, AAA at 0.1 µg/mL = 100.

Turning to B2, the “relative ADCC activity (AAA = 100)” value was 164 relative, AAA at 0.1 µg/mL = 100.

In the case of B3, the “relative ADCC activity (AAA = 100)” value was 201 relative, AAA at 0.1 µg/mL = 100.

B4: the “relative ADCC activity (AAA = 100)” value was 163 relative, AAA at 0.1 µg/mL = 100.

As for B5, the “relative ADCC activity (AAA = 100)” value was 179 relative, AAA at 0.1 µg/mL = 100.

On to B6, for which the “relative ADCC activity (AAA = 100)” value is 175 relative, AAA at 0.1 µg/mL = 100.

As to B7, the “relative ADCC activity (AAA = 100)” value was 161 relative, AAA at 0.1 µg/mL = 100.

For the molecule B8, the “relative ADCC activity (AAA = 100)” value is 160 relative, AAA at 0.1 µg/mL = 100.

For B9, the “relative ADCC activity (AAA = 100)” value was 125 relative, AAA at 0.1 µg/mL = 100.

As for B10, the “relative ADCC activity (AAA = 100)” value was 136 relative, AAA at 0.1 µg/mL = 100.
